Test results published in article PMC11076500, “Impact of distinct FG nucleoporin repeats on Nup98 self-association” (Nature Communications, 2024).

The proteins below were run against P52948 (assay: 1D 1H NMR (loss of the signal of soluble protein); 100 μM protein in 50 mM sodium phosphate, 1 mM TCEP; pH raised from 3 to 7 with NaOH, measured immediately (deadtime ~5 min); 5 °C; amide region integrated; self-association into particles not detectable by NMR). Details: other: 1D 1H NMR (loss of the signal of soluble protein).

Row | Protein | percent of the protein aggregated just after changing the pH to 7
1 | FG-repeat domain of human Nup98 (Nup98^FG; residues 1-384), wild type (protein) MFNKSFGTPFGGGTGGFGTTSTFGQNTGFGTTSGGAFGTSAFGSSNNTGGLFGNSQTKPGGLFGTSSFSQPATSTSTGFGFGTSTGTANTLFGTASTGTSLFSSQNNAFAQNKPTGFGNFGTSTSSGGLFGTTNTTSNPFGSTSGSLFGPSSFTAAPTGTTIKFNPPTGTDTMVKAGVSTNISTKHQCITAMKEYESKSLEELRLEDYQANRKGPQNQVGAGTTTGLFGSSPATSSATGLFSSSTTNSGFAYGQNKTAFGTSTTGFGTNPGGLFGQQNQQTTSLFSKPFGQATTTQNTGFSFGNTSTIGQPSTNTMGLFGVTQASQPGGLFGTATNTSTGTAFGTGTGLFGQTNTGFGAVGSTLFGNNKLTTFGSSTTSAPSFG | 67 % of the wild-type protein forms aggregates
2 | Nup98^FG F102S mutant (protein) MFNKSFGTPFGGGTGGFGTTSTFGQNTGFGTTSGGAFGTSAFGSSNNTGGLFGNSQTKPGGLFGTSSFSQPATSTSTGFGFGTSTGTANTLFGTASTGTSLSSSQNNAFAQNKPTGFGNFGTSTSSGGLFGTTNTTSNPFGSTSGSLFGPSSFTAAPTGTTIKFNPPTGTDTMVKAGVSTNISTKHQCITAMKEYESKSLEELRLEDYQANRKGPQNQVGAGTTTGLFGSSPATSSATGLFSSSTTNSGFAYGQNKTAFGTSTTGFGTNPGGLFGQQNQQTTSLFSKPFGQATTTQNTGFSFGNTSTIGQPSTNTMGLFGVTQASQPGGLFGTATNTSTGTAFGTGTGLFGQTNTGFGAVGSTLFGNNKLTTFGSSTTSAPSFG | only 28 and 23 % of the protein aggregated, respectively
3 | Nup98^FG F319S mutant (protein) MFNKSFGTPFGGGTGGFGTTSTFGQNTGFGTTSGGAFGTSAFGSSNNTGGLFGNSQTKPGGLFGTSSFSQPATSTSTGFGFGTSTGTANTLFGTASTGTSLFSSQNNAFAQNKPTGFGNFGTSTSSGGLFGTTNTTSNPFGSTSGSLFGPSSFTAAPTGTTIKFNPPTGTDTMVKAGVSTNISTKHQCITAMKEYESKSLEELRLEDYQANRKGPQNQVGAGTTTGLFGSSPATSSATGLFSSSTTNSGFAYGQNKTAFGTSTTGFGTNPGGLFGQQNQQTTSLFSKPFGQATTTQNTGFSFGNTSTIGQPSTNTMGLSGVTQASQPGGLFGTATNTSTGTAFGTGTGLFGQTNTGFGAVGSTLFGNNKLTTFGSSTTSAPSFG | only 28 and 23 % of the protein aggregated, respectively
4 | Nup98^FG F228S mutant (protein) MFNKSFGTPFGGGTGGFGTTSTFGQNTGFGTTSGGAFGTSAFGSSNNTGGLFGNSQTKPGGLFGTSSFSQPATSTSTGFGFGTSTGTANTLFGTASTGTSLFSSQNNAFAQNKPTGFGNFGTSTSSGGLFGTTNTTSNPFGSTSGSLFGPSSFTAAPTGTTIKFNPPTGTDTMVKAGVSTNISTKHQCITAMKEYESKSLEELRLEDYQANRKGPQNQVGAGTTTGLSGSSPATSSATGLFSSSTTNSGFAYGQNKTAFGTSTTGFGTNPGGLFGQQNQQTTSLFSKPFGQATTTQNTGFSFGNTSTIGQPSTNTMGLFGVTQASQPGGLFGTATNTSTGTAFGTGTGLFGQTNTGFGAVGSTLFGNNKLTTFGSSTTSAPSFG | in the F228S mutant 46% of the protein aggregates
5 | Nup98^FG F102S/F319S double mutant (protein) MFNKSFGTPFGGGTGGFGTTSTFGQNTGFGTTSGGAFGTSAFGSSNNTGGLFGNSQTKPGGLFGTSSFSQPATSTSTGFGFGTSTGTANTLFGTASTGTSLSSSQNNAFAQNKPTGFGNFGTSTSSGGLFGTTNTTSNPFGSTSGSLFGPSSFTAAPTGTTIKFNPPTGTDTMVKAGVSTNISTKHQCITAMKEYESKSLEELRLEDYQANRKGPQNQVGAGTTTGLFGSSPATSSATGLFSSSTTNSGFAYGQNKTAFGTSTTGFGTNPGGLFGQQNQQTTSLFSKPFGQATTTQNTGFSFGNTSTIGQPSTNTMGLSGVTQASQPGGLFGTATNTSTGTAFGTGTGLFGQTNTGFGAVGSTLFGNNKLTTFGSSTTSAPSFG | only 28 and 23 % of the protein aggregated, respectively

Target: the molecule itself
Test: cryo-EM structure; amyloid fibrils from 2 mM peptide in water, 25 °C for one day; helical reconstruction, 2.67 Å; five peptides in each layer
Details: not given

Row | Protein | binding result
6 | TGFSFGNTSTIGQPSTNTMGLFGVTQASQP (peptide, UniProt P52948 298-327, looked up, Forms amyloid fibrils; each fibril layer holds five peptides (four parallel, one antiparallel); source: synthetic peptide (solid-phase synthesis, Genscript)) [Nup98^FG(298-327) peptide] | binds
